Experimental data reported in patent US10946092 (BEIJING MABWORKS BIOTECH, dated 2021).
Read-outs that look alike come from different tables or passages of the source.

What was measured:
[1] = biological target: T1, recombinant human LAG3(ECD)-his (Sino Biological, Cat #: 16498-H08H) (human, UniProt P18627 23-450); experiment: SPR (BIAcore 8K), human LAG3(ECD)-his coupled to chip, antibody injected, 1:1 Langmuir
T1 construct: extracellular domain; Bought protein; not shown: his tag
T1 sequence (looked up): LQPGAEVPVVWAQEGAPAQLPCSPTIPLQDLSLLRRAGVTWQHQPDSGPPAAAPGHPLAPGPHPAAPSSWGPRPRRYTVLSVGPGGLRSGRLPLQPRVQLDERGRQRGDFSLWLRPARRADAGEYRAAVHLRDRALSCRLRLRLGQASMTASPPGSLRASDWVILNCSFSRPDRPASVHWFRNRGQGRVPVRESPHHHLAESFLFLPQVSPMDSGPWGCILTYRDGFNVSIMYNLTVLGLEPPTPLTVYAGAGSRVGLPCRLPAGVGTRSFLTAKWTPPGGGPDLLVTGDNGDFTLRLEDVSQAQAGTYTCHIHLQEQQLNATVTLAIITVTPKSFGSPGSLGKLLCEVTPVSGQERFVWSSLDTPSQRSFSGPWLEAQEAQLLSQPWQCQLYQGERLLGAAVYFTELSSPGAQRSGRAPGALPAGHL
Procedure: (§1) Serially diluted antibodies at concentrations ranging from 0.3 μM to 10 μM were injected into the SPR running buffer (HBS-EP buffer, pH7.4, GE Life Sciences; US; Cat #: BR-1006-69) at 30 μL/minute. The binding capacities were calculated with the RUs of blank controls subtracted. The association rate (Ka) and dissociation rate (Kd) were calculated using the one-to-one Langmuir binding model (BIA Evaluation Software, GE Life Sciences). The equilibrium dissociation constant K_D was calculated as the kd/ka ratio.

[2] = biological target: T2, Human PBMC; experiment: FACS on activated human PBMC
T2 chain: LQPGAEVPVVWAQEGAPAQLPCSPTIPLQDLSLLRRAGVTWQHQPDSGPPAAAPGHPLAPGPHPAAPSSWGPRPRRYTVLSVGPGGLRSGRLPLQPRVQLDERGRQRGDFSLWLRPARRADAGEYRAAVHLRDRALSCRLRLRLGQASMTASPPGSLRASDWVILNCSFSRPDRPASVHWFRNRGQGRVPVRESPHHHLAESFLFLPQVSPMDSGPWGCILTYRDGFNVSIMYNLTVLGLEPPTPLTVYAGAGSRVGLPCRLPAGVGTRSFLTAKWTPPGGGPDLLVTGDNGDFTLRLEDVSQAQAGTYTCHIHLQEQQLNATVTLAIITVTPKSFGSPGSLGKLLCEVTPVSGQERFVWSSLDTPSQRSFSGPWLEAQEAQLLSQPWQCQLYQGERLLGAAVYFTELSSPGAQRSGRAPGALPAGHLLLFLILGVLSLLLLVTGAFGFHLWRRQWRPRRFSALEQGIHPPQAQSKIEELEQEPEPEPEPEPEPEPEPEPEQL
Procedure: Briefly, 10^5 HEK293A cells in 50 μl PBS buffers were seeded into each well of the 96-well plates and then added with 50 μl of serially diluted anti-LAG3 antibodies (5-fold dilution, starting from 40 μg/ml). After incubated at 4° C. for 1 hour, plates were washed 3 times with PBST. Then, an APC coupled Goat Anti-Mouse IgG (BioLegend, US, Cat #: 405308) diluted 500× was added to the plates. After incubation at 4° C. for 1 hour, the plates were washed with PBS for 3 times and then cell fluorescence was monitored using a FACS machine (BD).
Further, the binding activities of the two antibodies to actived human PBMCs were investigated by FACS. Briefly, human PBMCs were collected by density gradient centrifugation and then re-suspended in the complete medium (RPMI medium+10% FBS+ human IL-2 (20 IU/ml, R&D, Cat #: 202-IL)+ Dynabeads™ Human T-Activator CD3/CD28 (Gibco, Cat #: 11132D)) at 37° C. under 5% CO_2 in a humidified incubator for 2 days to get activated T cells. The cells were then collected and tested by FACS as described in Example 6.

[3] = biological target: T1, recombinant human LAG3(ECD)-his (Sino …); experiment: SPR (BIAcore 8K), human LAG3(ECD)-his coupled to chip, antibody injected, 1:1 Langmuir; printed a second time as 'Ka values', read as Kd
Procedure: as §1

[4] = biological target: T3, monkey LAG3(ECD)-mFc protein (ACRO, Cat #: LA3-052A0) (monkey); experiment: SPR (BIAcore 8K), monkey LAG3(ECD)-mFc coupled to chip, antibody injected, 1:1 Langmuir
T3 construct: extracellular domain; Bought protein
Procedure: as §1

[5] = biological target: T4, hLAG-3-hIg fusion protein (human LAG-3 extracellular domain fused to human Fc); Sino Biological, Cat #: … (human, UniProt P18627 23-450); experiment: FACS blocking assay: hLAG-3-hIg preincubated with the antibody, then binding to MHC II on Daudi cells
T4 construct: extracellular domain; Bought protein; also called LAG3 fusion protein; human LAG3(ECD)-hFc; not shown: human Fc
T4 sequence (looked up): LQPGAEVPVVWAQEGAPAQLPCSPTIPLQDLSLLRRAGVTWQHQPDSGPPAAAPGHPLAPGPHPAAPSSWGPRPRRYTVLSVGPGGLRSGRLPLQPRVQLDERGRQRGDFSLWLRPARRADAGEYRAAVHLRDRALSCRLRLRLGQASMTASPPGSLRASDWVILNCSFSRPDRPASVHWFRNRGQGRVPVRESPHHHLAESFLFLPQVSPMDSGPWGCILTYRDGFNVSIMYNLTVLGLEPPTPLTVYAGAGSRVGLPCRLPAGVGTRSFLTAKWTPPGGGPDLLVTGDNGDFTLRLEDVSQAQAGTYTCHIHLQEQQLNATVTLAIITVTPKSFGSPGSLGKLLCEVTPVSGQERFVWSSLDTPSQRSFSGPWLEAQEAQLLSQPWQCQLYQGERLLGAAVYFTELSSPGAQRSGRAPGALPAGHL

[6] = biological target: T5, human LAG3 expressed on HEK293A cells (human, UniProt P18627 23-525); experiment: FACS on HEK293A cells expressing human LAG3
T5 construct: whole, on cells; also called HEK293A/human LAG3
T5 sequence (looked up): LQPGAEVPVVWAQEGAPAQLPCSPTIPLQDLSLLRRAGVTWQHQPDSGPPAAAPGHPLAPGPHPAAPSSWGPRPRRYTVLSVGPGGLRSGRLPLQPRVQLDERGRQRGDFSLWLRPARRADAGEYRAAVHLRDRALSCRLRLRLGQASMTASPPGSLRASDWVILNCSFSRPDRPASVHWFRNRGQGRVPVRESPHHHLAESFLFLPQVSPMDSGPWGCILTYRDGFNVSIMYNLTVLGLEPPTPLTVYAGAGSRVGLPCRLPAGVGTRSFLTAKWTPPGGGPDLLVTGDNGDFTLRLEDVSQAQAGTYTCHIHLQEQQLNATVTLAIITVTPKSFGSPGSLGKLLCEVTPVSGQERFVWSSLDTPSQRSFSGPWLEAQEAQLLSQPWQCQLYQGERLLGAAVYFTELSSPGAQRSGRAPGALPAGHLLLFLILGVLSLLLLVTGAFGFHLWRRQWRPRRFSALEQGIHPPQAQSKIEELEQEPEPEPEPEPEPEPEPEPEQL

[7] = biological target: T4, hLAG-3-hIg fusion protein (human LAG-3 …); experiment: FACS blocking assay: hLAG-3-hIg preincubated with the antibody, then binding to MHC II on Daudi cells; remark: listed apart in the source
[8] = biological target: T5, human LAG3 expressed on HEK293A cells; experiment: FACS on HEK293A cells expressing human LAG3; remark: listed apart in the source

B1: humanized antibody 101F4H2L2 (antibody, human IgG4 S228P, kappa, V domains shown)
VH: QVQLVQSGAEVKKPGASVKVSCKVSGYTFTDYEMHWVRQAPGKGLEWMGAIDPETGGIVYNQRFKGRVTLTADTSTDTAYMELSSLRSEDTAVYYCATAGWGYWGQGTTVTVSS
VL: DIQMTQSPSSLSASVGDRVTITCKASQDINSYLSWYQQKPGKAPKLLIYRANRLLDGVPSRFSGSGSGQDYTLTISSLQPEDFATYYCLQYDEFPFTFGQGTKLEIKR
notes: Human IgG4 (S228P)/kappa
Kd [1]: 414 nM | kon [1]: 960000 M⁻¹ s⁻¹ | EC50 (read off the curve) [2]: ~0.1 µg/mL | koff [3]: 0.398 s⁻¹ | Kd [4]: 0.488 nM

B2: humanized antibody 101F4H0L0 (antibody, human IgG4 S228P, kappa, V domains shown)
VH: QVQLVQSGAEVKKPGASVKVSCKVSGYTFTDYEMHWVRQAPGKGLEWMGAIDPETGGIVYNQRFKGRVTMTEDTSTDTAYMELSSLRSEDTAVYYCATAGWGYWGQGTTVTVSS
VL: DIQMTQSPSSLSASVGDRVTITCKASQDINSYLSWYQQKPGKAPKLLIYRANRLLDGVPSRFSGSGSGTDFTLTISSLQPEDFATYYCLQYDEFPFTFGQGTKLEIKR
notes: Human IgG4 (S228P)/kappa
binding result [5]: binds | binding result [6]: binds

B3: humanized antibody 101F4H2L3 (antibody, human IgG4 S228P, kappa, V domains shown)
VH: QVQLVQSGAEVKKPGASVKVSCKVSGYTFTDYEMHWVRQAPGKGLEWMGAIDPETGGIVYNQRFKGRVTLTADTSTDTAYMELSSLRSEDTAVYYCATAGWGYWGQGTTVTVSS
VL: DIQITQSPSSLSASVGDRVTITCKASQDINSYLSWFQQKPGKAPKLLIYRANRLLDGVPSRFSGSGSGQDYTLTISSLQPEDFATYYCLQYDEFPFTFGQGTKLEIKR
notes: Human IgG4 (S228P)/kappa
binding result [5]: binds | binding result [6]: binds

B4: humanized antibody 101F4H3L3 (antibody, human IgG4 S228P, kappa, V domains shown)
VH: QVQLVQSGAEVKKPGASVKVSCKASGYTFTDYEMHWVRQAPGKGLEWMGAIDPETGGIVYNQRFKGRATLTADTSTDTAYMELSSLRSEDTAVYYCAGAGWGYWGQGTTVTVSS
VL: DIQITQSPSSLSASVGDRVTITCKASQDINSYLSWFQQKPGKAPKLLIYRANRLLDGVPSRFSGSGSGQDYTLTISSLQPEDFATYYCLQYDEFPFTFGQGTKLEIKR
notes: Human IgG4 (S228P)/kappa
binding result [5]: binds | binding result [6]: binds

B5: humanized antibody 101F4H3L2 (antibody, human IgG4 S228P, kappa, V domains shown)
VH: QVQLVQSGAEVKKPGASVKVSCKASGYTFTDYEMHWVRQAPGKGLEWMGAIDPETGGIVYNQRFKGRATLTADTSTDTAYMELSSLRSEDTAVYYCAGAGWGYWGQGTTVTVSS
VL: DIQMTQSPSSLSASVGDRVTITCKASQDINSYLSWYQQKPGKAPKLLIYRANRLLDGVPSRFSGSGSGQDYTLTISSLQPEDFATYYCLQYDEFPFTFGQGTKLEIKR
notes: Human IgG4 (S228P)/kappa
binding result [5]: binds | binding result [6]: binds

B6: humanized antibody 134G10H2L2 (antibody, human IgG4 S228P, kappa, V domains shown)
VH: EVQLVESGGGLVKPGGSLRLSCAASGFTFSSFGMSWVRQAPGKRLEWVSIISSGGTYTFYPDILKGRFTISRDNAKNSLYLQMNSLRAEDTAVYYCARVYSDYDGRFDYWGQGTLVTVSS
VL: DIVMTQSPSSLAVSLGERATINCKSSQSLLNSGNQKNYLAWYQQKPGQPPKLLIYGASTRESGVPDRFSGSGSGTDFTLTISSLQAEDVAVYYCQNDHSYPLTFGAGTKLEIKR
notes: Human IgG4 (S228P)/kappa
binding result [7]: binds | binding result [8]: binds

B7: humanized antibody 134G10H2L3 (antibody, human IgG4 S228P, kappa, V domains shown)
VH: EVQLVESGGGLVKPGGSLRLSCAASGFTFSSFGMSWVRQAPGKRLEWVSIISSGGTYTFYPDILKGRFTISRDNAKNSLYLQMNSLRAEDTAVYYCARVYSDYDGRFDYWGQGTLVTVSS
VL: DIVMTQSPSSLAVSLGERATINCKSSQSLLNSGNQKNYLAWYQQKPGQPPKLLIYGASTRESGVPDRFTGSGSGTDFTLTISSLQAEDVAVYYCQNDHSYPLTFGAGTKLEIKR
notes: Human IgG4 (S228P)/kappa
Kd [1]: 0.262 nM | kon [1]: 166000 M⁻¹ s⁻¹ | Kd [4]: 0.000201 nM

B8: humanized antibody 134G10H0L0 (antibody, human IgG4 S228P, kappa, V domains shown)
VH: EVQLVESGGGLVKPGGSLRLSCAASGFTFSSFGMSWVRQAPGKGLEWVSIISSGGTYTFYPDILKGRFTISRDNAKNSLYLQMNSLRAEDTAVYYCARVYSDYDGRFDYWGQGTLVTVSS
VL: DIVMTQSPDSLAVSLGERATINCKSSQSLLNSGNQKNYLAWYQQKPGQPPKLLIYGASTRESGVPDRFSGSGSGTDFTLTISSLQAEDVAVYYCQNDHSYPLTFGQGTKLEIKR
notes: Human IgG4 (S228P)/kappa
binding result [7]: binds | binding result [8]: binds

B9: humanized antibody 134G10H3L3 (antibody, human IgG4 S228P, kappa, V domains shown)
VH: EVQLVESGGGLVKPGGSLRLSCAASGFTFSSFGMSWVRQAPGKRLEWVGIISSGGTYTFYPDILKGRFTISRDNAKNSLYLQMNSLRAEDTAVYYCARVYSDYDGRFDYWGQGTLVTVSS
VL: DIVMTQSPSSLAVSLGERATINCKSSQSLLNSGNQKNYLAWYQQKPGQPPKLLIYGASTRESGVPDRFTGSGSGTDFTLTISSLQAEDVAVYYCQNDHSYPLTFGAGTKLEIKR
notes: Human IgG4 (S228P)/kappa
binding result [7]: binds | binding result [8]: binds

B10: humanized antibody 134G10H3L2 (antibody, human IgG4 S228P, kappa, V domains shown)
VH: EVQLVESGGGLVKPGGSLRLSCAASGFTFSSFGMSWVRQAPGKRLEWVGIISSGGTYTFYPDILKGRFTISRDNAKNSLYLQMNSLRAEDTAVYYCARVYSDYDGRFDYWGQGTLVTVSS
VL: DIVMTQSPSSLAVSLGERATINCKSSQSLLNSGNQKNYLAWYQQKPGQPPKLLIYGASTRESGVPDRFSGSGSGTDFTLTISSLQAEDVAVYYCQNDHSYPLTFGAGTKLEIKR
notes: Human IgG4 (S228P)/kappa; also called 134G10H3VL2
binding result [7]: binds | binding result [8]: binds
